Consider 62 variants from the Human Domainome abundance scans (Beltran et al. 2025).

± gives the uncertainty stated by the source.

B1: Activity-dependent neuroprotector homeobox protein, residues 770 to 810; numbered along this chain, Q9H2P0 (parent)
chain: FLTKYFNKQPYPTRREIEKLAASLWLWKSDIASHFSNKRKK

The variants in this series derive from B1. As to the kind of experiment: abundance fitness (aPCA) (normalised: wild type 0, dead -1); higher = more abundant; growth selection in yeast, the domain comes from the species named. To be noted: Homo sapiens.
FLTKYCNKQPYPTRREIEKLAASLWLWKSDIASHFSNKRKK: the abundance fitness is -0.223 ± 0.054.

FLTKYYNKQPYPTRREIEKLAASLWLWKSDIASHFSNKRKK: the abundance fitness is -0.295 ± 0.07.

As to FLTKYRNKQPYPTRREIEKLAASLWLWKSDIASHFSNKRKK, the abundance fitness is -0.163 ± 0.044.

For FLTKYINKQPYPTRREIEKLAASLWLWKSDIASHFSNKRKK, the abundance fitness was -0.237 ± 0.059.

With FLTKYTNKQPYPTRREIEKLAASLWLWKSDIASHFSNKRKK, the abundance fitness is -0.328 ± 0.056.

FLTKYDNKQPYPTRREIEKLAASLWLWKSDIASHFSNKRKK: the abundance fitness is -0.837 ± 0.085.

For the variant FLTKYKNKQPYPTRREIEKLAASLWLWKSDIASHFSNKRKK, the abundance fitness was -0.098 ± 0.09.

With FLTKYMNKQPYPTRREIEKLAASLWLWKSDIASHFSNKRKK, the abundance fitness was -0.209 ± 0.067.

Turning to FLTKYANKQPYPTRREIEKLAASLWLWKSDIASHFSNKRKK, the abundance fitness is -0.235 ± 0.05.

For FLTKYGNKQPYPTRREIEKLAASLWLWKSDIASHFSNKRKK, the abundance fitness is -0.442 ± 0.056.

For the variant FLTKYLNKQPYPTRREIEKLAASLWLWKSDIASHFSNKRKK, the abundance fitness is -0.157 ± 0.045.

FLTKYVNKQPYPTRREIEKLAASLWLWKSDIASHFSNKRKK: the abundance fitness is -0.369 ± 0.05.

With FLTKYPNKQPYPTRREIEKLAASLWLWKSDIASHFSNKRKK, the abundance fitness was -0.942 ± 0.071.

As to FLTKYSNKQPYPTRREIEKLAASLWLWKSDIASHFSNKRKK, the abundance fitness is -0.76 ± 0.068.

As to FLTKYENKQPYPTRREIEKLAASLWLWKSDIASHFSNKRKK, the abundance fitness is -0.821 ± 0.18.

FLTKYFNKQKYPTRREIEKLAASLWLWKSDIASHFSNKRKK: the abundance fitness is -0.139 ± 0.095.

Take FLTKYFNKQTYPTRREIEKLAASLWLWKSDIASHFSNKRKK: the abundance fitness worked out at 0.011 ± 0.061.

As for FLTKYFNKQIYPTRREIEKLAASLWLWKSDIASHFSNKRKK, the abundance fitness was -0.114 ± 0.073.

FLTKYFNKQAYPTRREIEKLAASLWLWKSDIASHFSNKRKK: the abundance fitness was -0.095 ± 0.068.

As to FLTKYFNKQLYPTRREIEKLAASLWLWKSDIASHFSNKRKK, the abundance fitness is -0.15 ± 0.063.

FLTKYFNKQHYPTRREIEKLAASLWLWKSDIASHFSNKRKK: the abundance fitness was -0.153 ± 0.13.

With FLTKYFNKQGYPTRREIEKLAASLWLWKSDIASHFSNKRKK, the abundance fitness was -0.129 ± 0.084.

For FLTKYFNKQSYPTRREIEKLAASLWLWKSDIASHFSNKRKK, the abundance fitness came to 0.06 ± 0.068.

Take FLTKYFNKQWYPTRREIEKLAASLWLWKSDIASHFSNKRKK: the abundance fitness was 0.059 ± 0.14.

FLTKYFNKQNYPTRREIEKLAASLWLWKSDIASHFSNKRKK: the abundance fitness was found to be 0.09 ± 0.078.

As to FLTKYFNKQEYPTRREIEKLAASLWLWKSDIASHFSNKRKK, the abundance fitness came out at 0.158 ± 0.081.

Take FLTKYFNKQYYPTRREIEKLAASLWLWKSDIASHFSNKRKK: the abundance fitness was -0.155 ± 0.12.

On to FLTKYFNKQCYPTRREIEKLAASLWLWKSDIASHFSNKRKK, for which the abundance fitness turned out to be 0.011 ± 0.077.

FLTKYFNKQVYPTRREIEKLAASLWLWKSDIASHFSNKRKK: the abundance fitness stood at 0.062 ± 0.056.

For the variant FLTKYFFKQPYPTRREIEKLAASLWLWKSDIASHFSNKRKK, the abundance fitness is -1.24 ± 0.32.

With FLTKYFIKQPYPTRREIEKLAASLWLWKSDIASHFSNKRKK, the abundance fitness is -1.17 ± 0.2.

Take FLTKYFYKQPYPTRREIEKLAASLWLWKSDIASHFSNKRKK: the abundance fitness was -0.712 ± 0.12.

Turning to FLTKYFSKQPYPTRREIEKLAASLWLWKSDIASHFSNKRKK, the abundance fitness was -0.107 ± 0.049.

Turning to FLTKYFPKQPYPTRREIEKLAASLWLWKSDIASHFSNKRKK, the abundance fitness came to 0.017 ± 0.046.

On to FLTKYFAKQPYPTRREIEKLAASLWLWKSDIASHFSNKRKK, for which the abundance fitness is -0.145 ± 0.053.

Turning to FLTKYFCKQPYPTRREIEKLAASLWLWKSDIASHFSNKRKK, the abundance fitness is -0.455 ± 0.15.

Regarding FLTKYFTKQPYPTRREIEKLAASLWLWKSDIASHFSNKRKK, the abundance fitness was -0.215 ± 0.053.

Turning to FLTKYFRKQPYPTRREIEKLAASLWLWKSDIASHFSNKRKK, the abundance fitness was -0.174 ± 0.045.

As to FLTKYFEKQPYPTRREIEKLAASLWLWKSDIASHFSNKRKK, the abundance fitness was -0.058 ± 0.14.

For FLTKYFVKQPYPTRREIEKLAASLWLWKSDIASHFSNKRKK, the abundance fitness is -0.841 ± 0.11.

As to FLTKYFMKQPYPTRREIEKLAASLWLWKSDIASHFSNKRKK, the abundance fitness was -0.76 ± 0.12.

On to FLTKYFWKQPYPTRREIEKLAASLWLWKSDIASHFSNKRKK, for which the abundance fitness was -0.958 ± 0.21.

Take FLTKYFGKQPYPTRREIEKLAASLWLWKSDIASHFSNKRKK: the abundance fitness was -0.365 ± 0.067.

As for FLTKYFNAQPYPTRREIEKLAASLWLWKSDIASHFSNKRKK, the abundance fitness was -1.12 ± 0.094.

Take FLTKYFNDQPYPTRREIEKLAASLWLWKSDIASHFSNKRKK: the abundance fitness was -0.325 ± 0.076.

As for FLTKYFNHQPYPTRREIEKLAASLWLWKSDIASHFSNKRKK, the abundance fitness was -1.09 ± 0.1.

As to FLTKYFNMQPYPTRREIEKLAASLWLWKSDIASHFSNKRKK, the abundance fitness is -0.639 ± 0.33.

With FLTKYFNIQPYPTRREIEKLAASLWLWKSDIASHFSNKRKK, the abundance fitness was -1.43 ± 0.19.

On to FLTKYFNGQPYPTRREIEKLAASLWLWKSDIASHFSNKRKK, for which the abundance fitness is -0.217 ± 0.077.

With FLTKYFNRQPYPTRREIEKLAASLWLWKSDIASHFSNKRKK, the abundance fitness is -0.22 ± 0.051.

Consider FLTKYFNYQPYPTRREIEKLAASLWLWKSDIASHFSNKRKK, for which the abundance fitness was -0.554 ± 0.1.

Take FLTKYFNEQPYPTRREIEKLAASLWLWKSDIASHFSNKRKK: the abundance fitness was -0.634 ± 0.14.

Consider FLTKYFNVQPYPTRREIEKLAASLWLWKSDIASHFSNKRKK, for which the abundance fitness is -1.15 ± 0.12.

Regarding FLTKYFNNQPYPTRREIEKLAASLWLWKSDIASHFSNKRKK, the abundance fitness was -0.362 ± 0.066.

FLTKYFNCQPYPTRREIEKLAASLWLWKSDIASHFSNKRKK: the abundance fitness was -1.11 ± 0.24.

In the case of FLTKYFNLQPYPTRREIEKLAASLWLWKSDIASHFSNKRKK, the abundance fitness was -1.02 ± 0.097.

On to FLTKYFNWQPYPTRREIEKLAASLWLWKSDIASHFSNKRKK, for which the abundance fitness was -0.942 ± 0.18.

As for FLTKYFNSQPYPTRREIEKLAASLWLWKSDIASHFSNKRKK, the abundance fitness was -0.995 ± 0.074.

For the variant FLTKYFNTQPYPTRREIEKLAASLWLWKSDIASHFSNKRKK, the abundance fitness is -0.951 ± 0.094.

FLTKYFNFQPYPTRREIEKLAASLWLWKSDIASHFSNKRKK: the abundance fitness is -1.13 ± 0.18.

FLTKYFNQQPYPTRREIEKLAASLWLWKSDIASHFSNKRKK: the abundance fitness was -0.858 ± 0.12.

With FLTKYFNPQPYPTRREIEKLAASLWLWKSDIASHFSNKRKK, the abundance fitness is -1.11 ± 0.13.
